Test results from the supplement of paper PMC9112550, “Optimization of the antimicrobial peptide Bac7 by deep mutational scanning” (BMC Biology, 2022).

The sequences below were run on Escherichia coli TOP10 (assay: shrunken log2 fold change of peptide-encoding DNA abundance (4.5 h post-induction vs induction); higher = less antimicrobial activity (less host growth inhibition)). Settings: time post-induction: 4.5 h; library: site-saturation at positions 5, 18, 19, 20.
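Further: peptides expressed intracellularly from a pBAD plasmid library in pooled LB shake-flask culture, induced with 0.3% L-arabinose, DNA abundance read by NGS, three biological replicates, DESeq2 with apeglm shrinkage.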

Q: How did the “shrunken log2 fold change” value turn out when RRIRPRPPRLPRPRPRPINMPRP was run?
A: -0.503

Q: With RRIRDRPPRLPRPRPRPACSPRP as the sequence, how does the “shrunken log2 fold change” value read?
A: 0.386

Q: With RRIRCRPPRLPRPRPRPAMPPRP as the sequence, how does the “shrunken log2 fold change” value read?
A: -0.054

Q: RRIRDRPPRLPRPRPRPPTRPRP was tested. Which “shrunken log2 fold change” value did it give?
A: 0.596

Q: Which “shrunken log2 fold change” value does the source give for RRIRERPPRLPRPRPRPKCNPRP here?
A: 0.0249

Q: RRIRPRPPRLPRPRPRPGKYPRP was tested. Which “shrunken log2 fold change” value did it give?
A: -0.132

Q: RRIRPRPPRLPRPRPRPSTHPRP was tested. Which “shrunken log2 fold change” value did it give?
A: -0.203

Q: With RRIRLRPPRLPRPRPRPVAKPRP as the sequence, how does the “shrunken log2 fold change” value read?
A: 0.123

Q: For RRIRGRPPRLPRPRPRPLVWPRP, which “shrunken log2 fold change” value is on record?
A: 0.952

Q: With RRIRLRPPRLPRPRPRPVAFPRP as the sequence, how does the “shrunken log2 fold change” value read?
A: 0.0295

Q: RRIRERPPRLPRPRPRPSPEPRP was tested. Which “shrunken log2 fold change” value did it give?
A: 0.0512

Q: With RRIRKRPPRLPRPRPRPHDWPRP as the sequence, how does the “shrunken log2 fold change” value read?
A: 0.31

Q: RRIRCRPPRLPRPRPRPPALPRP was tested. Which “shrunken log2 fold change” value did it give?
A: 0.415

Q: With RRIRQRPPRLPRPRPRPHNGPRP as the sequence, how does the “shrunken log2 fold change” value read?
A: -0.072

Q: RRIRLRPPRLPRPRPRPAIEPRP was tested. Which “shrunken log2 fold change” value did it give?
A: 0.0744

Q: For RRIRHRPPRLPRPRPRPLSPPRP, which “shrunken log2 fold change” value is on record?
A: -0.0711

Q: RRIRDRPPRLPRPRPRPPQCPRP was tested. Which “shrunken log2 fold change” value did it give?
A: 0.243

Q: With RRIRKRPPRLPRPRPRPWIHPRP as the sequence, how does the “shrunken log2 fold change” value read?
A: -0.145

Q: How did the “shrunken log2 fold change” value turn out when RRIRRRPPRLPRPRPRPQLCPRP was run?
A: 0.559

Q: How did the “shrunken log2 fold change” value turn out when RRIRMRPPRLPRPRPRPGWGPRP was run?
A: 1.2

Q: How did the “shrunken log2 fold change” value turn out when RRIRCRPPRLPRPRPRPAEYPRP was run?
A: -0.335

Q: How did the “shrunken log2 fold change” value turn out when RRIRGRPPRLPRPRPRPGWMPRP was run?
A: 0.315

Q: RRIRDRPPRLPRPRPRPRTKPRP was tested. Which “shrunken log2 fold change” value did it give?
A: 0.16

Q: For RRIRIRPPRLPRPRPRPYQTPRP, which “shrunken log2 fold change” value is on record?
A: -0.0792

Q: For RRIRFRPPRLPRPRPRPWGRPRP, which “shrunken log2 fold change” value is on record?
A: 0.0219

Q: Which “shrunken log2 fold change” value does the source give for RRIRYRPPRLPRPRPRPARHPRP here?
A: 0.0712

Q: With RRIRGRPPRLPRPRPRPHTEPRP as the sequence, how does the “shrunken log2 fold change” value read?
A: -0.0408

Q: Which “shrunken log2 fold change” value does the source give for RRIRWRPPRLPRPRPRPNEMPRP here?
A: -0.078

Q: For RRIRMRPPRLPRPRPRPSLKPRP, which “shrunken log2 fold change” value is on record?
A: 0.359

Q: For RRIRKRPPRLPRPRPRPQYAPRP, which “shrunken log2 fold change” value is on record?
A: 0.0233

Q: RRIRERPPRLPRPRPRPHKPPRP was tested. Which “shrunken log2 fold change” value did it give?
A: -0.519

Q: RRIRPRPPRLPRPRPRPHQTPRP was tested. Which “shrunken log2 fold change” value did it give?
A: -0.0729

Q: For RRIRVRPPRLPRPRPRPSHEPRP, which “shrunken log2 fold change” value is on record?
A: -0.225

Q: For RRIRLRPPRLPRPRPRPTEWPRP, which “shrunken log2 fold change” value is on record?
A: -0.0906

Q: Which “shrunken log2 fold change” value does the source give for RRIRARPPRLPRPRPRPMPEPRP here?
A: 0.18

Q: RRIRQRPPRLPRPRPRPHQLPRP was tested. Which “shrunken log2 fold change” value did it give?
A: 0.142

Q: With RRIRSRPPRLPRPRPRPQVSPRP as the sequence, how does the “shrunken log2 fold change” value read?
A: -0.236

Q: For RRIRERPPRLPRPRPRPAVLPRP, which “shrunken log2 fold change” value is on record?
A: 0.034

Q: Which “shrunken log2 fold change” value does the source give for RRIRWRPPRLPRPRPRPKKYPRP here?
A: -0.245

Q: With RRIRTRPPRLPRPRPRPFCHPRP as the sequence, how does the “shrunken log2 fold change” value read?
A: 0.0326

Q: RRIRVRPPRLPRPRPRPCYSPRP was tested. Which “shrunken log2 fold change” value did it give?
A: 0.00378

Q: Which “shrunken log2 fold change” value does the source give for RRIRTRPPRLPRPRPRPITIPRP here?
A: -0.151

Q: With RRIRCRPPRLPRPRPRPGDLPRP as the sequence, how does the “shrunken log2 fold change” value read?
A: -0.314

Q: With RRIRFRPPRLPRPRPRPNSPPRP as the sequence, how does the “shrunken log2 fold change” value read?
A: -0.462

Q: RRIRQRPPRLPRPRPRPNNWPRP was tested. Which “shrunken log2 fold change” value did it give?
A: -0.0942

Q: For RRIRYRPPRLPRPRPRPPDRPRP, which “shrunken log2 fold change” value is on record?
A: 0.118

Q: For RRIRFRPPRLPRPRPRPSGTPRP, which “shrunken log2 fold change” value is on record?
A: -0.0628

Q: RRIRKRPPRLPRPRPRPKALPRP was tested. Which “shrunken log2 fold change” value did it give?
A: 1.8

Q: RRIRWRPPRLPRPRPRPIPEPRP was tested. Which “shrunken log2 fold change” value did it give?
A: -0.0356

Q: With RRIRYRPPRLPRPRPRPANTPRP as the sequence, how does the “shrunken log2 fold change” value read?
A: -0.589

Q: Which “shrunken log2 fold change” value does the source give for RRIRVRPPRLPRPRPRPYQCPRP here?
A: -0.185

Q: With RRIRYRPPRLPRPRPRPPRGPRP as the sequence, how does the “shrunken log2 fold change” value read?
A: 0.284

Q: RRIRCRPPRLPRPRPRPAWSPRP was tested. Which “shrunken log2 fold change” value did it give?
A: 0.15

Q: With RRIRSRPPRLPRPRPRPRGNPRP as the sequence, how does the “shrunken log2 fold change” value read?
A: 0.0829

Q: Which “shrunken log2 fold change” value does the source give for RRIRRRPPRLPRPRPRPVPTPRP here?
A: 0.472

Q: RRIRDRPPRLPRPRPRPMVPPRP was tested. Which “shrunken log2 fold change” value did it give?
A: 0.0555

Q: Which “shrunken log2 fold change” value does the source give for RRIRTRPPRLPRPRPRPPFIPRP here?
A: -0.177

Q: For RRIRGRPPRLPRPRPRPHTFPRP, which “shrunken log2 fold change” value is on record?
A: -0.0226

Q: With RRIRPRPPRLPRPRPRPRERPRP as the sequence, how does the “shrunken log2 fold change” value read?
A: 0.121

Q: With RRIRHRPPRLPRPRPRPECYPRP as the sequence, how does the “shrunken log2 fold change” value read?
A: -0.0176

Q: Which “shrunken log2 fold change” value does the source give for RRIRTRPPRLPRPRPRPFNLPRP here?
A: -0.336

Q: RRIRDRPPRLPRPRPRPKLHPRP was tested. Which “shrunken log2 fold change” value did it give?
A: 0.464

Q: RRIRQRPPRLPRPRPRPNLFPRP was tested. Which “shrunken log2 fold change” value did it give?
A: -0.0199

Q: Which “shrunken log2 fold change” value does the source give for RRIRPRPPRLPRPRPRPPHLPRP here?
A: 0.024

Q: For RRIRDRPPRLPRPRPRPYGLPRP, which “shrunken log2 fold change” value is on record?
A: -0.0553

Q: For RRIRLRPPRLPRPRPRPTCSPRP, which “shrunken log2 fold change” value is on record?
A: -0.0337

Q: RRIRGRPPRLPRPRPRPWCCPRP was tested. Which “shrunken log2 fold change” value did it give?
A: 0.0685

Q: RRIRARPPRLPRPRPRPLHYPRP was tested. Which “shrunken log2 fold change” value did it give?
A: -0.174

Q: For RRIRMRPPRLPRPRPRPQSVPRP, which “shrunken log2 fold change” value is on record?
A: 0.0409

Q: How did the “shrunken log2 fold change” value turn out when RRIRCRPPRLPRPRPRPPTSPRP was run?
A: 0.428

Q: With RRIRLRPPRLPRPRPRPAVNPRP as the sequence, how does the “shrunken log2 fold change” value read?
A: -0.0174

Q: How did the “shrunken log2 fold change” value turn out when RRIRGRPPRLPRPRPRPSMGPRP was run?
A: 0.34

Q: For RRIRRRPPRLPRPRPRPFYTPRP, which “shrunken log2 fold change” value is on record?
A: -0.327

Q: For RRIRSRPPRLPRPRPRPWCLPRP, which “shrunken log2 fold change” value is on record?
A: -0.11

Q: For RRIRDRPPRLPRPRPRPQMFPRP, which “shrunken log2 fold change” value is on record?
A: -0.0311

Q: RRIRERPPRLPRPRPRPNTGPRP was tested. Which “shrunken log2 fold change” value did it give?
A: -0.385

Q: RRIRDRPPRLPRPRPRPTWEPRP was tested. Which “shrunken log2 fold change” value did it give?
A: 1.13

Q: Which “shrunken log2 fold change” value does the source give for RRIRNRPPRLPRPRPRPHTKPRP here?
A: -0.238

Q: With RRIRWRPPRLPRPRPRPSATPRP as the sequence, how does the “shrunken log2 fold change” value read?
A: 0.985

Q: For RRIRKRPPRLPRPRPRPHNCPRP, which “shrunken log2 fold change” value is on record?
A: 0.0806

Q: With RRIRLRPPRLPRPRPRPETQPRP as the sequence, how does the “shrunken log2 fold change” value read?
A: 0.00473

Q: Which “shrunken log2 fold change” value does the source give for RRIRSRPPRLPRPRPRPNSAPRP here?
A: -0.35

Q: RRIRQRPPRLPRPRPRPSWGPRP was tested. Which “shrunken log2 fold change” value did it give?
A: -0.0627

Q: How did the “shrunken log2 fold change” value turn out when RRIRTRPPRLPRPRPRPKLRPRP was run?
A: -0.0516

Q: How did the “shrunken log2 fold change” value turn out when RRIRNRPPRLPRPRPRPKIIPRP was run?
A: -0.118

Q: Which “shrunken log2 fold change” value does the source give for RRIRNRPPRLPRPRPRPKQCPRP here?
A: -0.293

Q: RRIRERPPRLPRPRPRPYDKPRP was tested. Which “shrunken log2 fold change” value did it give?
A: -1.41

Q: How did the “shrunken log2 fold change” value turn out when RRIRIRPPRLPRPRPRPFAGPRP was run?
A: 0.0391

Q: With RRIRWRPPRLPRPRPRPGIHPRP as the sequence, how does the “shrunken log2 fold change” value read?
A: 0.11

Q: How did the “shrunken log2 fold change” value turn out when RRIRMRPPRLPRPRPRPEMCPRP was run?
A: 3.01

Q: How did the “shrunken log2 fold change” value turn out when RRIRNRPPRLPRPRPRPYQDPRP was run?
A: -0.064

Q: With RRIRERPPRLPRPRPRPVEKPRP as the sequence, how does the “shrunken log2 fold change” value read?
A: -0.0163

Q: With RRIRCRPPRLPRPRPRPTMHPRP as the sequence, how does the “shrunken log2 fold change” value read?
A: -0.112

Q: With RRIRIRPPRLPRPRPRPPKFPRP as the sequence, how does the “shrunken log2 fold change” value read?
A: -0.294

Q: For RRIRTRPPRLPRPRPRPCAQPRP, which “shrunken log2 fold change” value is on record?
A: -0.05

Q: With RRIRLRPPRLPRPRPRPVPPPRP as the sequence, how does the “shrunken log2 fold change” value read?
A: 0.245

Q: With RRIRIRPPRLPRPRPRPYLYPRP as the sequence, how does the “shrunken log2 fold change” value read?
A: -0.544

Q: For RRIRARPPRLPRPRPRPYSFPRP, which “shrunken log2 fold change” value is on record?
A: -0.0794

Q: Which “shrunken log2 fold change” value does the source give for RRIRDRPPRLPRPRPRPDTQPRP here?
A: 0.419

Q: Which “shrunken log2 fold change” value does the source give for RRIRTRPPRLPRPRPRPPHAPRP here?
A: 0.312

Q: RRIRSRPPRLPRPRPRPDGDPRP was tested. Which “shrunken log2 fold change” value did it give?
A: -0.197

Q: For RRIRCRPPRLPRPRPRPTMMPRP, which “shrunken log2 fold change” value is on record?
A: -0.0339

Q: Which “shrunken log2 fold change” value does the source give for RRIRSRPPRLPRPRPRPQRPPRP here?
A: 0.0966

Q: For RRIRKRPPRLPRPRPRPGTGPRP, which “shrunken log2 fold change” value is on record?
A: 0.1

Q: With RRIRHRPPRLPRPRPRPWWVPRP as the sequence, how does the “shrunken log2 fold change” value read?
A: -0.136

Q: With RRIRWRPPRLPRPRPRPFDSPRP as the sequence, how does the “shrunken log2 fold change” value read?
A: -0.124

Q: For RRIRWRPPRLPRPRPRPDFMPRP, which “shrunken log2 fold change” value is on record?
A: -0.015

Q: With RRIRPRPPRLPRPRPRPPNDPRP as the sequence, how does the “shrunken log2 fold change” value read?
A: 0.111

Q: With RRIRDRPPRLPRPRPRPHTWPRP as the sequence, how does the “shrunken log2 fold change” value read?
A: -0.491
